Measured values: the supplement of paper PMC9732359
± gives the uncertainty stated by the source.

Assay: protein stability index of a GFP-peptide fusion (yeast GPS) (PSI 1-4); higher = more stable; sorted into four equal gates, so the index is relative within each strain
Outline: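 Yeast carrying a pooled library were grown to mid-log phase in leucine-free medium. Each library plasmid expresses Cherry and has a tiled 17-residue yeast protein peptide fused downstream of GFP. Cells were sorted into four equal gates by GFP/Cherry ratio, and plasmids from each gate were PCR-amplified, Illumina-sequenced and assigned to strains by barcode. Summing, across gates, the read frequency times the gate number gave each peptide's protein stability index.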

Sequence	protein stability index (doa10∆)	protein stability index (pdr5∆)	protein stability index (san1∆)	protein stability index (ubr1∆)
KRYANHTQDIIGGMRVD [RET1]	3.11 ± 0.069	3.41 ± 0.075	3.19 ± 0.049	3.37 ± 0.049
ANLEDIIFEIEKPLVVP [RRP6]	2 ± 0.085	2.79 ± 0.094	2.62 ± 0.08	2.03 ± 0.11
AGGAADCQFWETWLGSQ [PRE2]	3.19 ± 0.18	3.19 ± 0.15	2.97 ± 0.09	3.77 ± 0.13
EKKDSGSSKPAFSFGAK [YJL041W/NSP1]	3.32 ± 0.1	3.26 ± 0.098	3.08 ± 0.073	3.35 ± 0.051
IDSVEVETNTTVLADEF [RPB3]	2.96 ± 0.076	3.17 ± 0.071	3.09 ± 0.051	3.16 ± 0.037
KWDDLNEQLTLLSKKHG [RPN5]	2.67 ± 0.099	2.92 ± 0.083	2.58 ± 0.063	2.94 ± 0.055
FDDILKVGAEMMMQQQL [MED2]	2.66 ± 0.11	2.44 ± 0.093	2.53 ± 0.13	2.46 ± 0.086
QNVISLGSLTVEDYLSS [RPC82]	2.83 ± 0.095	2.84 ± 0.078	2.06 ± 0.12	3 ± 0.074
EDLFETISQALLNAADR [PUP3]	2.81 ± 0.12	2.01 ± 0.089	1.89 ± 0.16	1.92 ± 0.067
RVRTDDSVLLNRGNKKR [YML031W/NDC1]	3.29 ± 0.13	3.4 ± 0.16	3.08 ± 0.058	3.3 ± 0.097
NNNDNNNSNTVASSTNF [SWI1]	2.92 ± 0.032	3.089 ± 0.03	2.94 ± 0.031	3.021 ± 0.028
LASNFDNFDYFNQRDGE [MED1]	3.3 ± 0.08	3.17 ± 0.09	3.2 ± 0.084	3.1 ± 0.11
LKSESATSQYLKQDLKK [YGL172W/NUP49]	2.81 ± 0.079	2.88 ± 0.072	2.9 ± 0.061	2.95 ± 0.079
VGVGKLNKLYGGAKSRG [RPS19A]	3.29 ± 0.066	3.39 ± 0.1	3.2 ± 0.047	3.58 ± 0.11
LLGPTLEDHTPPEDKPN [QCR10]	2.5 ± 0.057	2.81 ± 0.064	2.94 ± 0.082	2.94 ± 0.033
VNIPSFMVRLDSEKHID [RPS9A]	2.62 ± 0.081	2.64 ± 0.051	2.48 ± 0.059	2.2 ± 0.052
GYVETPRGLRSLTTVWA [RPL3]	1.75 ± 0.29	–	–	–
YQSRGIDAMKAVAEAYN [RPN6]	2.87 ± 0.088	3.1 ± 0.083	2.81 ± 0.077	2.65 ± 0.045
YKEIRDVSRVAAVETLY [RPL20A]	1.95 ± 0.067	2.19 ± 0.081	1.75 ± 0.17	1.64 ± 0.069
VPPPPVRPSISFNESQR [RPO21]	2.47 ± 0.037	2.78 ± 0.036	2.62 ± 0.039	2.45 ± 0.034
PTMYTRLCICSGMLFEM [SIN4]	1.29 ± 0.041	1.28 ± 0.041	1.39 ± 0.08	1.44 ± 0.033
FVSSLSNTSTLKNMLYV [BRR2]	1.88 ± 0.058	2.08 ± 0.049	1.85 ± 0.064	2.18 ± 0.036
QILENYNALFQQNIKFR [YJL039C/NUP192]	2.73 ± 0.075	2.79 ± 0.065	2.86 ± 0.036	3.04 ± 0.054
KDAEYLRNYLTPNVREE [PUP1]	3.09 ± 0.057	3.01 ± 0.075	3.14 ± 0.056	3.16 ± 0.081
KLREPVARFLHFNGIRR [ITC1]	2.04 ± 0.088	2.05 ± 0.063	2.5 ± 0.083	2.09 ± 0.046
PNETSEIAQANSRNAIR [RPL19A]	2.7 ± 0.15	2.92 ± 0.095	2.54 ± 0.14	3.05 ± 0.13
KKDQSVLKSHSNDFEEG [YMR129W/POM152]	2.59 ± 0.087	2.99 ± 0.12	3.07 ± 0.071	2.95 ± 0.073

Sequence	protein stability index (doa10∆)	protein stability index (pdr5∆)	protein stability index (san1∆)	protein stability index (ubr1∆)
KYNVNISALTQTEIKDI [PRP8]	2.6 ± 0.082	2.57 ± 0.083	2.18 ± 0.067	2.75 ± 0.051
KSIINSQRPGARILARS [ITC1]	–	2.18 ± 0.16	2.45 ± 0.22	2.63 ± 0.11
NTIRQNVTSSGDHNKLR [YML103C/NUP188]	3.12 ± 0.17	3.04 ± 0.16	3.21 ± 0.075	2.98 ± 0.097
KINQERLERRINLTKVT [CSI1]	1.91 ± 0.062	1.96 ± 0.062	1.4 ± 0.095	1.37 ± 0.045
SRGGVTQVRVEFLEDTS [RPS28A]	3.41 ± 0.071	3.15 ± 0.058	3.16 ± 0.052	3.22 ± 0.05
EENGDSIKEHSTTMDGA [MED1]	3.32 ± 0.19	–	3.21 ± 0.14	3.57 ± 0.14
MKVLEERNAFLSDYEVL [RPC17]	–	2.77 ± 0.27	–	–
QLKNGLLEKYNTNELKE [MTR3]	2.97 ± 0.055	2.69 ± 0.056	3.08 ± 0.05	2.65 ± 0.045
ENLVVADLESFANNHFL [COR1]	1.7 ± 0.12	2.24 ± 0.18	1.97 ± 0.14	1.89 ± 0.12
ELLSMNIAPRLRLEDIF [RET1]	2.57 ± 0.065	2.25 ± 0.046	2.35 ± 0.057	2.5 ± 0.047
TSRVTGILLLDSLIQLA [YJL039C/NUP192]	1.85 ± 0.062	1.77 ± 0.056	1.59 ± 0.094	1.95 ± 0.048
LLGIDATVPSGRPETYI [RPO31]	2.71 ± 0.15	2.32 ± 0.15	–	–
RTIANQDHFHRLNYLYQ [RPR2]	2.64 ± 0.062	2.88 ± 0.043	2.73 ± 0.034	2.58 ± 0.026
TLIVVPFNQGSKQDVEA [FAS2]	2.87 ± 0.12	3.2 ± 0.12	3.13 ± 0.09	3.3 ± 0.12
VPRAALEERFDPKSPTK [YMR129W/POM152]	3.15 ± 0.062	3.09 ± 0.064	3.01 ± 0.043	3.1 ± 0.047
STYKHDRGIANIRNNIE [SRB4]	3.41 ± 0.19	3.27 ± 0.14	2.95 ± 0.14	3.49 ± 0.13
ASSSPSSTDFSTCIVSL [ECM29]	2.81 ± 0.081	2.26 ± 0.07	2.01 ± 0.1	1.84 ± 0.059
GNIVKEFENKFQNSYKP [YMR129W/POM152]	3.35 ± 0.081	3.14 ± 0.13	3.37 ± 0.053	3.39 ± 0.098
VEYLDVNEENDSYIALY [RET1]	2.97 ± 0.14	3.08 ± 0.19	3.2 ± 0.08	3.2 ± 0.12
TRKSLNNAVRFSKQCLI [ECM29]	2.15 ± 0.06	2.96 ± 0.061	2.42 ± 0.06	2.56 ± 0.05
EVTKGEKTYTKAPKIQR [RPS6A]	3.17 ± 0.18	3.19 ± 0.14	–	3.53 ± 0.13
VLPLGSVPEGTIVSNVE [RPL2A]	3.19 ± 0.12	3.33 ± 0.11	2.78 ± 0.18	3.12 ± 0.094
TSIGIKCNDGVVFAVEK [PRE10]	–	–	2.61 ± 0.29	–
SKVIIKFLQVMQKHGYI [RPS22A]	1.95 ± 0.038	1.84 ± 0.038	1.76 ± 0.066	2 ± 0.039
KRINKFLDSVHKQGSSY [POP7]	2.61 ± 0.04	2.52 ± 0.033	2.65 ± 0.045	2.37 ± 0.031
QPVNINLDSSITQDGKF [YMR129W/POM152]	2.92 ± 0.098	3.18 ± 0.084	3.07 ± 0.048	3.04 ± 0.059
HGQKGVCGIIVKQEDMP [RET1]	2.93 ± 0.24	1.35 ± 0.16	–	–
